The nature of the data set: label from the status in PepcDB records.
Take “MELVIILLALSLLMFVAYRGFSVILFAPIFALFAVFLTEPSYVLPFFSNIFMEKMVGFIKLYFPVFLLGAIFGKVVEMSGIADSIAKTIIELVGEKRTILAIVLMGAILTYSGVSVYVVVFAVYPFAAKLFRQANIPKRLIPGTIVLGAVTFTMDALPGSPQIQNVIPTTFFKTDIYAAPILGIVGAIFVLTVGLLYLESRRKKAKAEGEGYFGFNDGNTEMAASLQVEQKNMPLTNNIEITRAQQLITFIPLILVGVMNKVFTIMIPKWYPSGFDFSAIGMKAFGKVELSAVVGIWSVELALIIGILTTLLLYWKRVVTGFQAGLNTSIGGALLATMNTGAEFGFGGVIAALPGFAIMRDGISATFTNPLVNGAVTTNILAGITGSASGGMGIVLSAMGDKFIAAANQFDIPLEVMHRIVSMASGGMDTLPHNGAIITILTVTGLTHKQSYKDIFAITILKTVAVFLVIAFYTLTGLY”: the protein production result is “failed”. For “MELWIGITFASAFLQNLRSTLQKHLKGMMGTTGATFVRFVFGMPFALAYLAFLHLGLGRPLPVPNMSFAGWATVGAMAQIAATFLLVHLFSFRNFAVGTAYSRTEPAQAALFALIFIGESITGGTLAAIAISVAGVMLISVARTQVTPASFLTSIFSRTAGIGLASGAFFGLSSVAYRSASLALAPSLPAPDAMMQAGFTLVVVIVMQTVSMFLWIIWREREELPRIAKVWKPSLAVGFVGATASFGWFTAMTLQQAAVVKALAQVEMLFAFASTVLFFKEKINRLELSGCMLIVVGVLSLLAFG”, the protein production entry is listed as “failed”. The value for “MELYQDNKLNNVGNIEINQCDGVIKKENDLHVSVIKPITKKIIHCDNMENKMKINAFYKPVELVEEIKNYVHKGDTHLVKLYEDFKNKKDKKVKMKNEYMTKLKNLHILNMINNKKKENECGVVNKNNIVHFNLFNENEDVTPKIETVYIPKLEKNIEVVSHLKENVNVDYTYMVPKPVVIPIEVPILKFRDHFKIIPIRKKIIPVIKYTDNIIYVDCCVEKPYIVYENVIIPVPCDIPIEQKKYIDKVPPI” was “failed”; that for “MEMEERKLKILQAIINDYINNGEPVGSRTIAKKYNLGISSATIRNEMADLEEMGYIEQLHTSSGRKPSDKGYRLYVDRLMEIPSMSVEEEMLIKAKIIDSALYEIDKLVKQAMSLVSEMTKLTCVVKSLSARKSYIKSISLINIEPNMILCVFITDSGMIKNSIIRVKSNIENSSLERIANILNSKLKGLTIEQINLEVINNIKKDLREYGHIFDCIMPNLYDILREADSTEVYKEGTMNIFNYPEFKDIEKAKEFLSVIDDRRILDTLFNASGGVTVNIGNENSIKEARDFSVVSSVYKYNGRPLGTIGIIGPTRIPYSKVIKVIMEVVDQINNNLDKMNNS” was “failed”. Consider “MEMIGGDDTDTEMYGALVTAQSLRLRHLHHCRENQCTSVLVKYIQAPVHLVWSLVRRFDQPQKYKPFISRCTVNGDPEIGCLREVNVKSGLPATTSTERLEQLDDEEHILGINIIGGDHRLKNYSSILTVHPEMIDGRSGTMVMESFVVDVPQGNTKDDTCYFVESLIKCNLKSLACVSERLAAQDITNSIATFCNASNGYREKNHTETNL”, for which the protein production result is reported as “failed”. Take “MEMIRGRGIPNGVVQVPNLSANNLLQKFFIASNHFCQRDSEHGENQQEAKKREDEAEEDEKDVELTLGLSLNGQFGTDPRSRKRRHFELGRSSSIPEGFVFDEQRSGGGNGGDMRRIVGRGGSDMFQLDRTRSLPVVTEMDIEKERKVSEKTRAFMESPVTNRGAYLTKDKNRGQAVETEKPRAFLEFKIPPTKEGKKEKDRLVVTGPVNGKGKNGNTAKKQKNNVENSGMEKARNILEDMPCVSTRDVGADGKRVEGFLYWYGGNKEEVKIVCVCHGSFLSPAEFVRHGGGTVSDDDGGDVMINPLRHIVVKLPSSSI”: the protein production result was “failed”. As to “MEMVNAEAKQSVPLLTPYKMGRFNLSHRVVLAPLTRQKSYGSVPQPHAILYYSQRTSPGGFLIAEATGVSDTAQGYPDTPGIWTKEHVEAWKPIVDAVHAKGGIFFCQIWHVGRVSNRGFQPRRQAPISCTGKPIMPQMRANGIDEARFTPPRRLSIEEIPGIVNDFRLAARNAMEAGFDGVEIHGAHGYLIDQFMKDKVNDRTDEYGGSLQNRCKFALEVVDAVAKEIGPDRVGIRLSPFADYMESGDTNPEALGLYMVESLNKYGILYCHMIEPRMKTVGEIAACSHTLMPMREAFKGTFISAGGFTREDGNEAVAKGRTDLVAYGRWFLANPDLPKRFQLDAPLNKYNRSTFYTSDPVVGYTDYPSLESTA”, the protein production entry was “failed”. For the sequence “MEMYFKRMKDEWTGLVEQADPPIRAKAAEIAVAHAHYLSIEFYRIVRIDPHAEEFLSNEQVERQLKSAMERWIINVLSAQVDDVERLIQIQHTVAEVHARIGIPVEIVEMGFRVLKKILYPVIFSSDYSAAEKLQVYHFSINSIDIAMEVMTRAFTFSDSSASKEDENYRIFSLLENAEEEKERQIASILSWEIDIIYKILLDSDLGSSLPLSQADFGLWFNHKGRHYFSGIAEVGHISRLIQDFDGIFNQTMRNTRNLNNRSLRVKFLLQIRNTVSQIITLLRELFEEVSRHEVGMDVLTKLLNRRFLPTIFKREIAHANRTGTPLSVLIIDVDKFKEINDTWGHNTGDEILRKVSQAFYDNVRSSDYVFRYGGDEFIIVLTEASENETLRTAERIRSRVEKTKLKAANGEDIALSLSIGAAMFNGHPDYERLIQIADEALYIAKRRGRNRVELWKASL”, the protein production result is recorded as “failed”. In the case of “MENEKIWIKELKEKRLAYGVSQNKLAVASHITRPYLSDIETGKAVPTQQVKEDLLNALERFNPDNPLEMLFDYVRIRFPTNDVAQIIGEVLRLNMDYMLHEDFGYYSYPEHYRFGDIVVLVSHDVSKGVLLELKGKGCRQFENFLLAQHRSWYDFFQDCMEHKGIFKRLDLAINDKTGILNIPDLAKKCKQEECISVFRSFKNYRSGELVHRDEKPYMGNTLYIGSLKSEVYFCIYEKDYEQYVKNDVPLEDAEVKNRFEIRLKNDRATQAMKDLLAHQQAEKTAFEIINRYIRFADKDDTKRRSDWKTNERWEWFIGKNRGALRLTTQPEPYSFERTLNWLHHQVAPTLKIASILDVLNGTTIISTMIQEAKLTEKHEKLIEQQHLAMEDLIT”, the protein production result was “not failed”. For “MENEVTLLDLLWALRRAFLRLLLLALGVGLGVYALSLLLPKRYESAALLWLDLRPFPSQEALRPFPSQEALRPFPSQEALSPDQPLTSPPLASLVQALDLSLPTLRLSPAGEPASRFAQVEWDAKAQVLSLRAFGATPEEAQRRATKLLEEARSFLQARVREAYGGLAAAELARAEKALGLLEKALQEEVPQVSSRGSADLAPFLEAQGTPPPVARAQDPAATYLALKRAELLAEASRLQAQVAWLRDLLAQDGTWDRFLAESVLLSPTLPERPLAPRPLAYGVLAALGALLLGVLWVFLATVLRPGGAGVPQSDA”, the protein production entry is recorded as “failed”. With “MENFLSLFDFFKSKIRYIFLIYTIFTIYMNSKNCFINYVLLIFLDVILIIYSFIFLNKKQKYPFLFIIISTIVYAFIWLFGHCDNIYYFIILDDIFEIKADFKKKLLVAIHSSAFMMVTLKNLIFKNYDLHEILSSIAYSIIIYMAILFVFIFIHKFKDERDKLKILNSNLIEYSFNEREFLLSEERNRISQELHDSIGHSLMALSMNIKYLKGIKNRSNINEELDNMDKVIKESVQTLRSTVYNLKKLDECCDLKKEVYDIIKKFNRLDIVKINFDCASDIEKSTTTIKNTLIKTIKEGITNSLKHGNPTEINVTLTLVNSYIKLIIQDNGVGCQNIKPSAGLNGIKKRIEALNGKVAFESKARKGFTIETEIPGGF”, the protein production entry is listed as “failed”. Regarding “MENGEAKQSVPLLTPYKMGRFNLSHRVVLAPLTRQRSYGNVPQPHAAIYYSQRTTPGGFLITEATGVSDTAQGYQDTPGIWTKEHVEAWKPIVDAVHAKGGIFFCQIWHVGRVSNSGFQPNGKAPISCSDKPLMPQIRSNGIDEALFTPPRRLGIEEIPGIVNDFRLAARNAMEAGFDGVEIHGANGYLIDQFMKDTVNDRTDEYGGSLQNRCKFPLEIVDAVAKEIGPDRVGIRLSPFADYMESGDTNPGALGLYMAESLNKYGILYCHVIEARMKTMGEVHACPHTLMPMRKAFKGTFISAGGFTREDGNEAVSKGRTDLVAYGRWFLANPDLPKRFQVDAPLNKYDRPTFYTSDPVVGYTDYPFLESTA”, the protein production result is “not failed”. For the sequence “MENGLWEVLGSKGLLKKHEFIRILVQCLYSLGFKNSASCLEFESKILYKTADSEFLEKQVLSGNWDSCVQVLDRIFDNSMDDTRNTALYLVFKQCLLEYLKRGDVSLALNVLRKQAPLLRMGKEKIHRLACDIVYSKEMESGEVDNCLVLDLRRKLLVELEKLIPLPIVIPERRLEHLVETAVMDQIDTCMYHNSCDAVSLYKDHCCGRDQIPSETVQILVAHKNEVWFVQFSNSGKYLATASSDCTAIIWKVLDDNKVELKHTLESHQNPVSFVSWSPDDTKLLTCGNAEVLKLWDVDTGVLRHTFGNNNTGFTVSSCAWFPDSTRLVCGSSDPERGIVMWDTDGNEIKAWRGTRIPKVVDLAVTPDGESMITVFSDKEIRILNLETKVERVISEEQPITSLSISGDGKFFIVNLSCQEIHLWDLAGEWKQPLKFSGHRQSKYVIRSCFGGLDSSFIASGSEDSQVYIWNLKNTKPLEVLSGHSMTVNCVSWNPKNPRMLASASDDQTIRIWGPGKPNKPLN”, the protein production entry is “failed”. Regarding “MENKQVSTTQAAAKEPLIGYVHSIETFGSVDGPGIRYVAFLQGCHMRCQYCHNPDTWKLNVGDQMTADEILEDAAKYRAFWGKTGGITVSGGESLVQIDFILDLFEKAKAMNISTCLDTSGQPFTREQPFFDKFERLMKVTDISLVDIKHIDSAKHKQLTQYGNENILDMIQYMAQHHDDMWIRHVLVPQRTDYDEDLKKLGDYIAKIPNDVVQKVEVLPYHTLGVKKYHEMKIKYRLEGIESPTQDRVANAEKLLHTADYNGYKTWMPLPKL”, the protein production entry is recorded as “failed”. “MENLKKYLEVAKIAALAGGQVLKENFGKVKKENIEEKGEKDFVSYVDKTSEERIKEVILKFFPDHEVVGEEMGAEGSGSEYRWFIDPLDGTKNYINGFPIFAVSVGLVKGEEPIVGAVYLPYFDKLYWGAKGLGAYVNGKRIKVKDNESLKHAGVVYGFPSRSRRDISIYLNIFKDVFYEVGSMRRPGAAAVDLCMVAEGIFDGMMEFEMKPWDITAGLVILKEAGGVYTLVGEPFGVSDIIAGNKALHDFMLQVAKKYMEVAV”: the protein production entry is reported as “not failed”. With “MENSRHNEFFLPLLLCIILPIIFMLTTNIKILRKTFSFILQNSFLQSFVTIFISIILEALPFIIIGVFLSSLIQVFISEETLSRIIPKNIVLGILSAATIGLIFPVCDCAIVPIVRRLLKKGLPLPIGITFMLSVPIINPVVLTSTYYAFLSNPHAPLIRAVAGWISAVLIGFIINKLDKSKTKQAKLHEILFNERVYMPKNNPIVTSNHNHEHHKCSCGHVHHEEEKFSALTLVHVLDHVSLELQDVGRFVIMGAFLSALMQTFIPRKYILSIGHGNISSIIVMMILAYVLCVCSETDAFIARTFVNQFTNGSIVAFLIFGPMIDIKNTLMLCETFNLKFVFKLVSIIIVVCFLIGLAFNFVKIPL” the entry was “failed”.

Values taken from a protein production outcome set (Wang et al. 2014).
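Note: failed if final PepcDB status was selected cloned or expressed and not failed if soluble or beyond.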
